Patent US20160136262A1

Tests used:
[1] = target: T1, H1-mini2-cluster1+5+6-GCN4 without leader sequence and with FLAG-thrombin-foldon-HIS; assay: ELISA/HTRF, HEK293F; average; details: remark: other sources report otherwise
[2] = target: T1, H1-mini2-cluster1+5+6-GCN4 without …; assay: ELISA/HTRF, P. pastoris; average; details: remark: other sources report otherwise

B1: CR6261 (antibody, V domains shown)
VH: EVQLVESGAEVKKPGSSVKVSCKASGGPFRSYAISWVRQAPGQGPEWMGGIIPIFGTTKYAPKFQGRVTITADDFAGTVYMELSSLRSEDTAMYYCAKHMGYQVRETMDVWGKGTTVTVSS
VL: QSVLTQPPSVSAAPGQKVTISCSGSSSNIGNDYVSWYQQLPGTAPKLLIYDNNKRPSGIPDRFSGSKSGTSATLGITGLQTGDEANYYCATWDRRPTAYVVFGGGTKLTVLG
[1]
  fold increase of ratio over parental SEQ ID NO: 6: 1 fold
  ratio binding signal/HTRF signal: 17.4
[2]
  fold increase of ratio over parental SEQ ID NO: 6: 1 fold
  ratio binding signal/HTRF signal: 5.94
